The values below come from article PMC7517697.

The subject of the series is T1, CATH-B1 (mature cathelicidin-B1 peptide) (chicken).
T1 sequence: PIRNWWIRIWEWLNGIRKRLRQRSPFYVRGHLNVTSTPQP
The experiment in a line: ITC. The note with it: 75% PBS, 37 °C, dH -65.5 kJ/mol, dS -73.5 J/mol as printed, ITC: 75% PBS (PBS/H2O 3:1 v/v), 200 µM CATH-B1 in syringe titrated in 1 µL injections at 300 s intervals into ODN-2006 (25 nM as printed), pH not stated.

The term Kd denotes the concentration at which binding is half-saturated. With ODN-2006, the Kd worked out at 64 nM.
